Reference: patent publication US20040121410A1, “Pain signaling molecules” (priority 2002, published 2004)

What was measured:
MrgA1-GFP (mouse) = MrgA1-GFP (mouse) (UniProt Q91WW5); experiment: cell-based or functional assay
[1] = target: MrgC11-GFP (mouse) [GFP: P42212]; experiment: cell-based or functional assay

| Substance | EC50 of calcium mobilization (FLEXstation assay) (MrgA1-GFP (mouse)) [nM] | EC50 of calcium mobilization (FLEXstation assay) [1] [nM] | further results |
| --- | --- | --- | --- |
| FLRF-amide (peptide) | 402 | 157 | internalization of the receptor-GFP fusion (confocal microscopy, 3 µM FLRFa, 30 min, 37° C.) (MrgA1-GFP (mouse)): > 90 % of cells |
| R-Fa (peptide) | – | – | EC50 of calcium mobilization (HEK-MrgC11 cells) [1]: 460 nM |
| AF-2 (peptide) | – | 130 | – |
| BAM-15-amide (peptide) | 8770 | 479 | fold change of agonist activity against BAM-15 (MrgA1-GFP (mouse)): 2.7 fold; fold change of agonist activity against BAM-15 [1]: 9 fold |
| BAM-15 (peptide) | 23300 | 53 | – |
| Met-Enk-RF (peptide) | – | 545 | fold change of agonist activity against the amidated peptide [1]: 4 to 5 fold |
| PQRF-amide (peptide) | > 10000 | 126 | – |
| BAM-22P (peptide) | 2540 | 26 | – |
| γ2-MSH (peptide) | – | 11 | internalization of the receptor-GFP fusion (confocal microscopy, 1 µM γ2-MSH, 30 min, 37° C.) [1]: > 90 % of cells |
| Dynnorphin-14 (peptide) | – | 22 | – |
| RFRP-1 (peptide) | – | 1240 | – |
| γ1-MSH (peptide) | – | 17 | – |
| PrRP-20 (peptide) | – | 144 | – |
| Kiss(107-121) (peptide) | – | 102 | – |
| F-(D)M-R-Fa (peptide) | – | – | EC50 of calcium mobilization (HEK-MrgA1 cells) (MrgA1-GFP (mouse)): 1260 nM; fold decrease in fold change of agonist activity against FMRFa (MrgA1-GFP (mouse)): 3 fold; EC50 of calcium mobilization (HEK-MrgC11 cells) [1]: 11 nM; fold change of agonist activity against FMRFa [1]: 10 fold |
| (D)F-M-R-Fa (peptide) | – | – | EC50 of calcium mobilization (HEK-MrgA1 cells) (MrgA1-GFP (mouse)): 882 nM; EC50 of calcium mobilization (HEK-MrgC11 cells) [1]: 108 nM |
| R-F-OH (peptide) | – | – | EC50 of calcium mobilization (HEK-MrgC11 cells) [1]: 632 nM |
| BAM3200 (peptide) | > 10000 | 300 | – |
| RFRP-3 (peptide) | – | 113 | – |
| F-M-R-(D)Fa (peptide) | – | – | EC50 of calcium mobilization (HEK-MrgA1 cells) (MrgA1-GFP (mouse)): 643 nM |
| Met-ENK-RFamide (peptide) | 5250 | 133 | – |
| NPAF (peptide) | – | 282 | – |
| FMRF-OH (peptide) | 8200 | 544 | fold decrease in fold change of agonist activity against FMRFa (MrgA1-GFP (mouse)): 20 fold; fold change of agonist activity against the amidated peptide [1]: 4 to 5 fold |
| AnthoRF-amide (peptide) | – | 16 | – |
| FMRF-amide (peptide) | 420 | 114 | EC50 of calcium mobilization (HEK-MrgA1 cells) (MrgA1-GFP (mouse)): 420 nM; EC50 of calcium mobilization (HEK-MrgC11 cells) [1]: 114 nM |
| NPFF (peptide) | 2140 | 54 | – |
| Kiss(112-121) (peptide) | – | 50 | – |
